Source: patent publication US20160200782A1

Tests used:
Experiment in all cases: cell-based or functional assay
AMPKa1(h) (human) = AMPKa1(h) (human) (UniProt Q13131)
Ab1(M351T)(h) (human) = Ab1(M351T)(h) (human) (UniProt P00519)
Ab1(Q252H)(h) (human) = Ab1(Q252H)(h) (human) (UniProt P00519)
Ab1(h) (human) = Ab1(h) (human) (UniProt P00519)
BrSK2(h) (human) = BrSK2(h) (human) (UniProt Q8IWQ3)
CDK2/cyclinA(h) (human) = CDK2/cyclinA(h) (human) (UniProt P24941)
CDK2/cyclinE(h) (human) = CDK2/cyclinE(h) (human) (UniProt P24941)
[1] = target: CDK9/cyclin T1(h) (human) (UniProt P50750)
CHK2(h) (human) = CHK2(h) (human) (UniProt O96017)
Sequence of CHK2(h) (human) (O96017 5-543 limits assumed): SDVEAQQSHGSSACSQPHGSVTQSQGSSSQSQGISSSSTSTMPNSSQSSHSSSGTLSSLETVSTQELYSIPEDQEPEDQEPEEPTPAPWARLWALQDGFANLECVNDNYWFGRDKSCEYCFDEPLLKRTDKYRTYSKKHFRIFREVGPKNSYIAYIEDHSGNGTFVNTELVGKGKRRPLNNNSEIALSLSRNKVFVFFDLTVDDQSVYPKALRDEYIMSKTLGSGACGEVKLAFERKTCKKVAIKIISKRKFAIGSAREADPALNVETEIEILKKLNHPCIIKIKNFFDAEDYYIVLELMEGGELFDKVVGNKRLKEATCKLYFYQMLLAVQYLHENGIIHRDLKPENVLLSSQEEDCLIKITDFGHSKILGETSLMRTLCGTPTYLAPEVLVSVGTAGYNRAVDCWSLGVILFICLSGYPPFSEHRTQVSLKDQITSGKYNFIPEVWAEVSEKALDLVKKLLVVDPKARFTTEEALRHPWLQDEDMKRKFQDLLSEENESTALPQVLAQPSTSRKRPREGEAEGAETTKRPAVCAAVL

CaMKI(h) (human) = CaMKI(h) (human) (UniProt Q14012)
CaMKIIβ(h) (human) = CaMKIIβ(h) (human) (UniProt Q13554)
CaMKIIγ(h) (human) = CaMKIIγ(h) (human) (UniProt Q13555)
Sequence of CaMKIIγ(h) (human) (Q13555 whole entry): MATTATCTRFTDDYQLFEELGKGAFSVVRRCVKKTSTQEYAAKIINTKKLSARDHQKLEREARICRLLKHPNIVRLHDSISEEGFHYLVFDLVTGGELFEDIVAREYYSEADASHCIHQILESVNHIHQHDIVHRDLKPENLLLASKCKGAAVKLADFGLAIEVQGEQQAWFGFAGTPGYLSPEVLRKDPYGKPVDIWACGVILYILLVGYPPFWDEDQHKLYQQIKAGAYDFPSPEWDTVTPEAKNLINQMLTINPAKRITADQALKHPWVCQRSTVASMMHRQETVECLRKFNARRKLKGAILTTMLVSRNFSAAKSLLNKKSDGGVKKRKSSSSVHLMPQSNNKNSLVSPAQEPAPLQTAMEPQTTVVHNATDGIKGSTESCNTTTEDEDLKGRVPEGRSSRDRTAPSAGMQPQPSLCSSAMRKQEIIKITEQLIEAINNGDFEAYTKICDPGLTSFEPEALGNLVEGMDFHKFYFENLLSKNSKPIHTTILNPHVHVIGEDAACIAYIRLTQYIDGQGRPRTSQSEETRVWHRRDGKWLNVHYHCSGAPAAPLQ

CaMKIIδ(h) (human) = CaMKIIδ(h) (human) (UniProt Q13557)
DRAK1(h) (human) = DRAK1(h) (human) (UniProt Q9UEE5)
EGFR(L861Q)(h) (human) = EGFR(L861Q)(h) (human) (UniProt P00533)
EphA1(h) (human) = EphA1(h) (human) (UniProt P21709)
EphA3(h) (human) = EphA3(h) (human) (UniProt P29320)
EphA4(h) (human) = EphA4(h) (human) (UniProt P54764)
EphB2(h) (human) = EphB2(h) (human) (UniProt P29323)
Sequence of EphB2(h) (human) (P29323 565-986 limits assumed): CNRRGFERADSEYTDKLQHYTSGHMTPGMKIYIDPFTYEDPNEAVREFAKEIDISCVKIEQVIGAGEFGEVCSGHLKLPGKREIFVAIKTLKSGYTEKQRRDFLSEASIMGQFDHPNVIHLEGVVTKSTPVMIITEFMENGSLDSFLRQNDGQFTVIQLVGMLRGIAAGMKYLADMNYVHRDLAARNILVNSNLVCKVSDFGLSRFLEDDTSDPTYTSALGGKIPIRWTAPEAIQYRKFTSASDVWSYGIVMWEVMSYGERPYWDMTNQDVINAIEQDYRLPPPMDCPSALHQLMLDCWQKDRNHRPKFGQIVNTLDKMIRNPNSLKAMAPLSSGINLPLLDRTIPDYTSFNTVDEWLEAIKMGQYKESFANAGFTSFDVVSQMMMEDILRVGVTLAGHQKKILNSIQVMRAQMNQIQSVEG

FAK(h) (human) = FAK(h) (human) (UniProt Q05397)
FGFR1(h) (human) = FGFR1(h) (human) (UniProt P11362)
FGFR4(h) (human) = FGFR4(h) (human) (UniProt P22455)
Sequence of FGFR4(h) (human) (P22455 460-802 limits assumed): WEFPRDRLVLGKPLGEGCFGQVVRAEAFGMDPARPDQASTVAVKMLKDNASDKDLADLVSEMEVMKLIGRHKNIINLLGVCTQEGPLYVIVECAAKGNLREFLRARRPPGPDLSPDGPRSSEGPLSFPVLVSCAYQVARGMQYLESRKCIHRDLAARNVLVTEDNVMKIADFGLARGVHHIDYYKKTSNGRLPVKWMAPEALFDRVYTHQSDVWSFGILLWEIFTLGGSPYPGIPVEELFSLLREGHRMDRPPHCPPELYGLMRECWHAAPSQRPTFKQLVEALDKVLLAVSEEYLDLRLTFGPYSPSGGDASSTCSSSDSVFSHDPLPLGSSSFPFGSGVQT

Fms(h) (human) = Fms(h) (human) (UniProt P07333)
HIPK2(h) (human) = HIPK2(h) (human) (UniProt Q9H2X6)
Hck(h) activated (human) = Hck(h) activated (human) (UniProt P08631)
IKKα(h) (human) = IKKα(h) (human) (UniProt O15111)
IRAK4(h) (human) = IRAK4(h) (human) (UniProt Q9NWZ3)
Itk(h) (human) = Itk(h) (human) (UniProt Q08881)
LKB1(h) (human) = LKB1(h) (human) (UniProt Q15831)
Lyn(h) (human) = Lyn(h) (human) (UniProt P07948)
Sequence of Lyn(h) (human) (P07948 whole entry): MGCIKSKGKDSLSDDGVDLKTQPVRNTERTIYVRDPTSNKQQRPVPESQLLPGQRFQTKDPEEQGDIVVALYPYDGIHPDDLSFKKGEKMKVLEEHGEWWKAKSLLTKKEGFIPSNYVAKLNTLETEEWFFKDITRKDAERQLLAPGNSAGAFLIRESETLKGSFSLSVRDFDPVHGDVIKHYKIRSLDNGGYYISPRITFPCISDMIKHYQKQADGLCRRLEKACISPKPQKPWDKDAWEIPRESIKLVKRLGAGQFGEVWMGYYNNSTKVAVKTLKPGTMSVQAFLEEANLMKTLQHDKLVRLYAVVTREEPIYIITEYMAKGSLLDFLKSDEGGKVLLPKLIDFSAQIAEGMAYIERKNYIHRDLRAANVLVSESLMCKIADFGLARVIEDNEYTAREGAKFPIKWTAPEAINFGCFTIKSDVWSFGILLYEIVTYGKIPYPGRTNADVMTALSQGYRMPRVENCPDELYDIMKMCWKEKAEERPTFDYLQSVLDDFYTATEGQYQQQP

MST1(h) (human) = MST1(h) (human) (UniProt Q13043)
MST2(h) (human) = MST2(h) (human) (UniProt Q13188)
Mer(h) (human) = Mer(h) (human) (UniProt Q12866)
Met(M1268T)(h) (human) = Met(M1268T)(h) (human) (UniProt P08581)
MuSK(h) (human) = MuSK(h) (human) (UniProt O15146)
NEK2(h) (human) = NEK2(h) (human) (UniProt P51955)
NEK6(h) (human) = NEK6(h) (human) (UniProt Q9HC98)
PAK2(h) (human) = PAK2(h) (human) (UniProt Q13177)
PAK5(h) (human) = PAK5(h) (human) (UniProt Q9P286)
PKCε(h) (human) = PKCε(h) (human) (UniProt Q02156)
PKCτ(h) (human) = target: PKCτ(h) (human)
PKD2(h) (human) = PKD2(h) (human) (UniProt Q9BZL6)
PRK2(h) (human) = PRK2(h) (human) (UniProt Q16513)
ROCK-I(h) (human) = ROCK-I(h) (human) (UniProt Q13464)
Rsk4(h) (human) = Rsk4(h) (human) (UniProt Q9UK32)
Sequence of Rsk4(h) (human) (Q9UK32 whole entry): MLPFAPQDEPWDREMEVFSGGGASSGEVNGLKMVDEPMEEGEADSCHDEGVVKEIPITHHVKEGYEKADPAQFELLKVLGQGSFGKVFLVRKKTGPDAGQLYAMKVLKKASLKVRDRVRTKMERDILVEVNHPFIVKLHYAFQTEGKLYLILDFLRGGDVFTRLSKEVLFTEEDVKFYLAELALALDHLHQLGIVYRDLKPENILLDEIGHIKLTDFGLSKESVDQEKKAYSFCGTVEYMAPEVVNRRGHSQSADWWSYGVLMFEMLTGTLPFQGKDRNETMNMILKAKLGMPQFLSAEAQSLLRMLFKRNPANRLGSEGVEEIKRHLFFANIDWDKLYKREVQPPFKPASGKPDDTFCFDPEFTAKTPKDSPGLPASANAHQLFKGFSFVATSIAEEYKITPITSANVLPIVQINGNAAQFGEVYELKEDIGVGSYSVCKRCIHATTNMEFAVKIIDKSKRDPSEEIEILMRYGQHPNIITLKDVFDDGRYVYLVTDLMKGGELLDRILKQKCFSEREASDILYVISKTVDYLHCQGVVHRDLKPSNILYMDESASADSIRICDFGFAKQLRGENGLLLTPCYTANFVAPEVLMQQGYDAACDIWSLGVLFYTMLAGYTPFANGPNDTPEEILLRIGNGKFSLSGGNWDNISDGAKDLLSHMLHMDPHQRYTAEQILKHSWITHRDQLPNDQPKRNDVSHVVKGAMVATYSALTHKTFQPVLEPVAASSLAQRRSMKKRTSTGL

SAPK3(h) (human) = SAPK3(h) (human) (UniProt P53778)
SRPK2(h) (human) = SRPK2(h) (human) (UniProt P78362)
Snk(h) (human) = Snk(h) (human) (UniProt Q9NYY3)
TAO1(h) (human) = TAO1(h) (human) (UniProt Q7L7X3)
TLK2(h) (human) = TLK2(h) (human) (UniProt Q86UE8)
Sequence of TLK2(h) (human) (Q86UE8 whole entry): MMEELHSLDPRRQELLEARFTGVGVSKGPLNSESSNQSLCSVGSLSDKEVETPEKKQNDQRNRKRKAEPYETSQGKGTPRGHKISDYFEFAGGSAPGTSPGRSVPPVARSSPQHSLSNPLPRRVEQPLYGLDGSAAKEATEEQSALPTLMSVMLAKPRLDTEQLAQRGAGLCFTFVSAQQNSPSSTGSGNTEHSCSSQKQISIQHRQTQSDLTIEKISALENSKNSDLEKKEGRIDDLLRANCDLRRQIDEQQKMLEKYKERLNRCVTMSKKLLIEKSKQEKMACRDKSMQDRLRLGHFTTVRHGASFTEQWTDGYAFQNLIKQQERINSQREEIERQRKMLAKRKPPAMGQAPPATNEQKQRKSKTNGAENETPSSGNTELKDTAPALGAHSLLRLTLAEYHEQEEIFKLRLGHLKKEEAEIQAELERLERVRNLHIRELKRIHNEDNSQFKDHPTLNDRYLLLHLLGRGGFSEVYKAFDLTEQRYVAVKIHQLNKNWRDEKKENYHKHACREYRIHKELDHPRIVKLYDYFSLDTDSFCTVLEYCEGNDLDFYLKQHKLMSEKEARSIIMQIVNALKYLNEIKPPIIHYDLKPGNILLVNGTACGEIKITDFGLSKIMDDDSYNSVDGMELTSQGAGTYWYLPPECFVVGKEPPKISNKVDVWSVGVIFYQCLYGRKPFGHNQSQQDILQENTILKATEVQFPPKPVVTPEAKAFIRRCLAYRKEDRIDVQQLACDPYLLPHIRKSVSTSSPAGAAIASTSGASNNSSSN

Tie2(h) (human) = Tie2(h) (human) (UniProt Q02763)
Sequence of Tie2(h) (human) (Q02763 771-1124 limits assumed): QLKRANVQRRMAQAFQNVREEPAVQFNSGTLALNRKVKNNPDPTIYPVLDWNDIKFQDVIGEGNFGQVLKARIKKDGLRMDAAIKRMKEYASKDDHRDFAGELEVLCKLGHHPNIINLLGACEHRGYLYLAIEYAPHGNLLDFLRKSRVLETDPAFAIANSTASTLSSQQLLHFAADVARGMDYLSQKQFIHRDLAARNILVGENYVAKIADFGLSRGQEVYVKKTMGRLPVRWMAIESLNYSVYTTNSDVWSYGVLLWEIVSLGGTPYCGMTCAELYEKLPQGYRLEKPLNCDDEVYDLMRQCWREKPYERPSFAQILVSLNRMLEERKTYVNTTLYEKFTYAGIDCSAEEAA

VRK2(h) (human) = VRK2(h) (human) (UniProt Q86Y07)
ZAP-70(h) (human) = ZAP-70(h) (human) (UniProt P43403)
Sequence of ZAP-70(h) (human) (P43403 whole entry): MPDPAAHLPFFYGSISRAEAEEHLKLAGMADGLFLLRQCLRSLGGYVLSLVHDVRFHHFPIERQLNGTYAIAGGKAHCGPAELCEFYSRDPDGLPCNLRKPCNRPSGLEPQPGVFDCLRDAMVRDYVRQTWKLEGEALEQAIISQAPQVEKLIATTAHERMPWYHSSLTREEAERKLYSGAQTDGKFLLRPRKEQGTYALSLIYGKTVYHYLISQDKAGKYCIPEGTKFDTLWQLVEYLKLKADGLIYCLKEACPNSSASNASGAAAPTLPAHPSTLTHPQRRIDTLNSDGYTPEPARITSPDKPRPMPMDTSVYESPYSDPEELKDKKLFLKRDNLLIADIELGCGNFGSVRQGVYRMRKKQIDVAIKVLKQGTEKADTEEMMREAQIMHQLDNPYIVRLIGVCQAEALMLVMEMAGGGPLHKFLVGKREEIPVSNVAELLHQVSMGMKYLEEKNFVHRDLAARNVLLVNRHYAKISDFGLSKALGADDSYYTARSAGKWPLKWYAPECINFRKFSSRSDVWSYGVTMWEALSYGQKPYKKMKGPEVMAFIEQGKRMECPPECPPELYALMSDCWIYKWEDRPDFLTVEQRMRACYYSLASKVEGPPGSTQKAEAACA

c-RAF(h) (human) = c-RAF(h) (human) (UniProt P04049)
cKit(V654A)(h) (human) = cKit(V654A)(h) (human) (UniProt P10721)
cSRC(h) (human) = cSRC(h) (human) (UniProt P12931)

MMI-0200 (peptide) showed a % activity (AMPKa1(h) (human)) of 108%, a % activity (Ab1(M351T)(h) (human)) of 119% and a % activity (Ab1(Q252H)(h) (human)) of 107%. It also gave a % activity (Ab1(h) (human)) of 107%, a % activity (BrSK2(h) (human)) of 102% and a % activity (CDK2/cyclinA(h) (human)) of 114%. The % activity (CDK2/cyclinE(h) (human)) was 112%, the % activity [1] was 103% and the % activity (CHK2(h) (human)) was 105%. For the same substance, the % activity (CaMKI(h) (human)) was 21%, the % activity (CaMKIIβ(h) (human)) was 53% and the % activity (CaMKIIγ(h) (human)) was 94%. For the same substance, the % activity (CaMKIIδ(h) (human)) was 2%, the % activity (DRAK1(h) (human)) was 34% and the % activity (EGFR(L861Q)(h) (human)) was 74%. The % activity (EphA1(h) (human)) was 136%, the % activity (EphA3(h) (human)) was 117% and the % activity (EphA4(h) (human)) was 127%. It also gave a % activity (EphB2(h) (human)) of 128%, a % activity (FAK(h) (human)) of 110% and a % activity (FGFR1(h) (human)) of 97%. The % activity (FGFR4(h) (human)) was 75%, the % activity (Fms(h) (human)) was 92% and the % activity (HIPK2(h) (human)) was 102%. It also gave a % activity (Hck(h) activated (human)) of 100%, a % activity (IKKα(h) (human)) of 104% and a % activity (IRAK4(h) (human)) of 110%. For the same substance, the % activity (Itk(h) (human)) was 98%, the % activity (LKB1(h) (human)) was 99% and the % activity (Lyn(h) (human)) was 98%. For the same substance, the % activity (MST1(h) (human)) was 72%, the % activity (MST2(h) (human)) was 104% and the % activity (Mer(h) (human)) was 90%. The % activity (Met(M1268T)(h) (human)) was 143%, the % activity (MuSK(h) (human)) was 106% and the % activity (NEK2(h) (human)) was 97%. It also gave a % activity (NEK6(h) (human)) of 98%, a % activity (PAK2(h) (human)) of 69% and a % activity (PAK5(h) (human)) of 100%. The % activity (PKCε(h) (human)) was 98%, the % activity (PKCτ(h) (human)) was 97% and the % activity (PKD2(h) (human)) was 78%. For the same substance, the % activity (PRK2(h) (human)) was 74%, the % activity (ROCK-I(h) (human)) was 117% and the % activity (Rsk4(h) (human)) was 125%. It also gave a % activity (SAPK3(h) (human)) of 97%, a % activity (SRPK2(h) (human)) of 100% and a % activity (Snk(h) (human)) of 109%. For the same substance, the % activity (TAO1(h) (human)) was 105%, the % activity (TLK2(h) (human)) was 129% and the % activity (Tie2(h) (human)) was 53%. It also gave a % activity (VRK2(h) (human)) of 109%, a % activity (ZAP-70(h) (human)) of 58% and a % activity (c-RAF(h) (human)) of 115%. The % activity (cKit(V654A)(h) (human)) was 113% and the % activity (cSRC(h) (human)) was 32%.
MMI-0500 (peptide) gave a % activity (AMPKa1(h) (human)) of 35%, a % activity (Ab1(M351T)(h) (human)) of 61% and a % activity (Ab1(Q252H)(h) (human)) of 40%. The % activity (Ab1(h) (human)) was 16%, the % activity (BrSK2(h) (human)) was 84% and the % activity (CDK2/cyclinA(h) (human)) was 87%. The % activity (CDK2/cyclinE(h) (human)) was 19%, the % activity [1] was 6% and the % activity (CHK2(h) (human)) was 13%. For the same substance, the % activity (CaMKI(h) (human)) was -1%, the % activity (CaMKIIβ(h) (human)) was 3% and the % activity (CaMKIIγ(h) (human)) was 3%. It also gave a % activity (CaMKIIδ(h) (human)) of 1%, a % activity (DRAK1(h) (human)) of 8% and a % activity (EGFR(L861Q)(h) (human)) of 15%. The % activity (EphA1(h) (human)) was 40%, the % activity (EphA3(h) (human)) was 33% and the % activity (EphA4(h) (human)) was 48%. It also gave a % activity (EphB2(h) (human)) of 70%, a % activity (FAK(h) (human)) of 94% and a % activity (FGFR1(h) (human)) of 18%. It also gave a % activity (FGFR4(h) (human)) of 3%, a % activity (Fms(h) (human)) of 14% and a % activity (HIPK2(h) (human)) of 38%. For the same substance, the % activity (Hck(h) activated (human)) was 67%, the % activity (IKKα(h) (human)) was 50% and the % activity (IRAK4(h) (human)) was 3%. The % activity (Itk(h) (human)) was 7%, the % activity (LKB1(h) (human)) was 51% and the % activity (Lyn(h) (human)) was 31%. It also gave a % activity (MST1(h) (human)) of 3%, a % activity (MST2(h) (human)) of 2% and a % activity (Mer(h) (human)) of 17%. For the same substance, the % activity (Met(M1268T)(h) (human)) was 239%, the % activity (MuSK(h) (human)) was 27% and the % activity (NEK2(h) (human)) was 0%. The % activity (NEK6(h) (human)) was 49%, the % activity (PAK2(h) (human)) was 44% and the % activity (PAK5(h) (human)) was 125%. It also gave a % activity (PKCε(h) (human)) of 23%, a % activity (PKCτ(h) (human)) of 7% and a % activity (PKD2(h) (human)) of 10%. For the same substance, the % activity (PRK2(h) (human)) was 7%, the % activity (ROCK-I(h) (human)) was 17% and the % activity (Rsk4(h) (human)) was 29%. The % activity (SAPK3(h) (human)) was 24%, the % activity (SRPK2(h) (human)) was 80% and the % activity (Snk(h) (human)) was 122%. It also gave a % activity (TAO1(h) (human)) of 24%, a % activity (TLK2(h) (human)) of 133% and a % activity (Tie2(h) (human)) of 22%. For the same substance, the % activity (VRK2(h) (human)) was 169%, the % activity (ZAP-70(h) (human)) was 1% and the % activity (c-RAF(h) (human)) was 19%. For the same substance, the % activity (cKit(V654A)(h) (human)) was 223% and the % activity (cSRC(h) (human)) was 30%.
